Measured values reported in patent publication US20140271457A1 (AbbVie / Abbott, published 2014).
Each block holds one binder with its values, some of them ahead of it.

What was measured:
[1] = biological target: Recombinant Human TNF-α/TNFSF1A (human, UniProt P01375 77-233); assay: cell-based or functional assay
Recombinant Human IL-13 = Recombinant Human IL-13 (human, UniProt P35225 35-146, limits assumed); assay: Biacore SPR
Experimental: The BIACORE assay (GE, Healthcare Piscataway, N.J.) determined the affinity of antibodies or DVD-Ig with kinetic measurements of on-rate and off-rate constants. Binding of antibodies or DVD-Ig proteins to a target antigen (for example, a purified recombinant target antigen) was determined by surface plasmon resonance-based measurements with a Biacore T200 using running HBS-EP+buffer from GE Healthcare at 25° C. All chemicals were obtained from GE Healthcare or otherwise from a different source as described in the text. For example, approximately 5000 RU of goat anti-mouse IgG, (Fcγ), fragment specific polyclonal antibody (Pierce Biotechnology Inc, Rockford, Ill.) diluted in 10 mM sodium acetate (pH 4.5) was directly immobilized across a CM5 research grade biosensor chip using a standard amine coupling kit according to manufacturer's instructions. Unreacted moieties on the biosensor surface were blocked with ethanolamine. Modified carboxymethyl dextran surface in flowcell 1 was used as a reference surface. Rate constants were derived by making kinetic binding measurements at different antigen concentrations ranging from 0.8-100 nM. Binding was recorded as a function of time and kinetic rate constants were calculated. In this assay, association rate was evaluated for 5 min and dissociation was monitored for 10 min. For kinetic screening analysis, rate equations derived from the 1:1 binding model were fitted simultaneously to association and dissociation phases of all injections (using global fit analysis with Rmax fit locally to account for capture variations) with the use of Biaevaluation software. Purified antibodies or DVD-Ig proteins were diluted in HEPES-buffered saline for capture across goat anti-mouse IgG specific reaction surfaces. Antibodies or DVD-Ig proteins to be captured as a ligand were injected over reaction matrices at a flow rate of 5 μl/minute. The association and dissociation rate constants, kₒₙ (M⁻¹ s⁻¹) and koff (s⁻¹) were determined under a continuous flow rate of 50 μl/minute. Rate constants were derived by making kinetic binding measurements at different antigen concentrations ranging from 0.8-100 nM. Binding was recorded as a function of time and kinetic rate constants were calculated. In this assay, association rate was evaluated for 5 min and dissociation was monitored for 10 min.

Recombinant Human IL-13, sequence (P35225 35-146 limits assumed): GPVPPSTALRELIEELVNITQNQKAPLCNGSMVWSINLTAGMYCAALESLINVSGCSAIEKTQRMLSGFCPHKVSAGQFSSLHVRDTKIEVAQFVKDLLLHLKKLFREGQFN
Recombinant Human TNF-α/TNFSF1A, sequence (P01375 77-233 limits assumed): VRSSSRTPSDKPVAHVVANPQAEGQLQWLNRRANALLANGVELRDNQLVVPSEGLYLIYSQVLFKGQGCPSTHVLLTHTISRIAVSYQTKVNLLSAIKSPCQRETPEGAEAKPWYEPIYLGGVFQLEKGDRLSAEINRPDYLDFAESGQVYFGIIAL

B1: DVD3267 (bispecific antibody, IgG1)
VH: EVQLVESGGGLVQPGGSLRLSCAASGFSFSKYWLGWVRQAPGKGLEWVSDIYPGYDYTHYNEKFKDRFTISADTSKNTAYLQMNSLRAEDTAVYYCARSDGSSTYWGQGTLVTVSSASTKGPSVFPLAPEVQLQQSGPELVTPGASVKISCKASGYTFTKYWLGWVKQSHGKSLEWIGDIYPGYDYTHYNEKFKDTATLTVDKSSSIAYMEIRGLTSEDSAVYYCARSDGSSTYWGQGTLVTVSA
VL: DIQMTQSPSSLSASVGDRVTITCTSSQNIVHSNGNTYLEWYQQKPGKAPKLLIYKVSNRFSGVPSRFSGSGSGTDFTLTISSLQPEDFATYYCFQVSHVPYTFGQGTKVEIKRTVAAPDVQMIQSPSSLSASLGDIVTMTCTSSQNIVHSNGNTYLEWFQQKPGKAPKLLIYKVSNRFSGVPSRFSGSRYGTDFTLTISSLEDEDLATYFCFQVSHVPYTFGGGTKLEIKR
- N-Terminal VD huTNFα Neutralization Assay IC50 [1]: 0.002 nM

B2: DVD2766 (bispecific antibody, IgG1)
VH: EVQLVESGGGLVQPGGSLRLSCAASGFTFSNYGVEWVRQAPGKGLEWVSGIWADGSTHYADTVKSRFTISRDNSKNTLYLQMNSLRAEDTAVYYCAREWQHGPVAYWGQGTLVTVSSASTKGPEVQLVESGGGLVQPGGSLRLSCAASGFSLTNNNVNWVRQAPGKGLEWVGGVWAGGATDYNSALKSRFTISRDNSKNTAYLQMNSLRAEDTAVYYCARDGGYSSSTLYAMDAWGQGTLVTVSS
VL: DIQMTQSPSSLSASVGDRVTITCKASQLVSSAVAWYQQKPGKAPKLLIYWASTLHTGVPSRFSGSGSGTDFTLTISSLQPEDFATYYCQQHYRTPFTFGQGTKLEIKRTVAAPSVFIFPPDIQMTQSPSSLSASVGDRVTITCRASEDIYNALAWYQQKPGKAPKLLIYNTDTLHTGVPSRFSGSGSGTDYTLTISSLQPEDFATYFCQHYFHYPRTFGQGTKVEIKR
- N-Terminal VD huTNFα Neutralization Assay IC50 [1]: 0.01 nM

B3: DVD3043 (bispecific antibody, IgG1)
VH: EVQLVESGGGLVQPGGSLRLSCAASGFSLTNNNVNWVRQAPGKGLEWVGGVWAGGATDYNSALKSRFTISRDNSKNTAYLQMNSLRAEDTAVYYCARDGGYSSSTLYAMDAWGQGTLVTVSSGGGGSGGGGSEVQLVQSGAEVKKPGASVKVSCKASGYTFNNYGIIWVRQAPGQGLEWMGWINTYTGKPTYAQKFQGRVTMTTDTSTSTAYMELSSLRSEDTAVYYCARKLFNTVAVTDNAMDYWGQGTTVTVSS
VL: DIQMTQSPSSLSASVGDRVTITCRASEDIYNALAWYQQKPGKAPKLLIYNTDTLHTGVPSRFSGSGSGTDYTLTISSLQPEDFATYFCQHYFHYPRTFGQGTKVEIKRGGSGGGGSGDIQMTQSPSSLSASVGDRVTITCRASQDIENYLNWYQQKPGKAPKLLIYYTSRLQSGVPSRFSGSGSGTDFTLTISSLQPEDFATYFCQQGNTQPPTFGQGTKLEIKR
- C-Terminal VD huTNFα Neutralization Assay IC50 [1]: 0.128 nM

B4: DVD3044 (bispecific antibody, IgG1)
VH: EVQLVESGGGLVQPGGSLRLSCAASGFSLTNNNVNWVRQAPGKGLEWVGGVWAGGATDYNSALKSRFTISRDNSKNTAYLQMNSLRAEDTAVYYCARDGGYSSSTLYAMDAWGQGTLVTVSSASTKGPEVQLVQSGAEVKKPGASVKVSCKASGYTFNNYGIIWVRQAPGQGLEWMGWINTYTGKPTYAQKFQGRVTMTTDTSTSTAYMELSSLRSEDTAVYYCARKLFNTVAVTDNAMDYWGQGTTVTVSS
VL: DIQMTQSPSSLSASVGDRVTITCRASEDIYNALAWYQQKPGKAPKLLIYNTDTLHTGVPSRFSGSGSGTDYTLTISSLQPEDFATYFCQHYFHYPRTFGQGTKVEIKRTVAAPDIQMTQSPSSLSASVGDRVTITCRASQDIENYLNWYQQKPGKAPKLLIYYTSRLQSGVPSRFSGSGSGTDFTLTISSLQPEDFATYFCQQGNTQPPTFGQGTKLEIKR
- C-Terminal VD huTNFα Neutralization Assay IC50 [1]: 0.673 nM

B5: DVD3173 (bispecific antibody, IgG1)
VH: EVQLVQSGAEVKKPGASVKVSCKASGYTFNNYGIIWVRQAPGQGLEWMGWINTYTGKPTYAQKFQGRVTMTTDTSTSTAYMELSSLRSEDTAVYYCARKLFNTVAVTDNAMDYWGQGTTVTVSSGGGGSGGGGSEVQLVQSGAEVKKPGASVKVSCKASGYTFTSYWMHWVRQAPGQGLEWIGNINPKGGSNIYNEKFQGRVTMTRDTSISTAYMELSRLRSDDTAVYYCARLDYFGDSFDLWGQGTTVTVSS
VL: DIQMTQSPSSLSASVGDRVTITCRASQDIENYLNWYQQKPGKAPKLLIYYTSRLQSGVPSRFSGSGSGTDFTLTISSLQPEDFATYFCQQGNTQPPTFGQGTKLEIKRGGSGGGGSGDIQMTQSPSSLSASVGDRVTITCRASQGIRNYLNWYQQKPGKAPKLLIYYASNLEVGVPSRFSGSGSGTDYTLTISSLQPEDFATYYCQQDNRFPYTFGGGTKVEIKR
notes: DVD-Ig; wt hIgG1 + kappa constants
- Kd (Recombinant Human IL-13): 0.37 nM
- koff (Recombinant Human IL-13): 8.8e-05 s⁻¹
- kon (Recombinant Human IL-13): 240000 M⁻¹ s⁻¹

B10: DVD3116 (bispecific antibody, IgG1)
VH: EVQLVQSGAEVKKPGASVKVSCKASGYTFNNYGIIWVRQAPGQGLEWMGWINTYTGKPTYAQKFQGRVTMTTDTSTSTAYMELSSLRSEDTAVYYCARKLFNTVAVTDNAMDYWGQGTTVTVSSASTKGPEVQLVQSGAEVKKPGASVKVSCKASGYTFTTYGVSWVRQAPGQGLEWMGEIYPGNYNTYYNEKFRGRVTMTTDTSTSTAYMELRSLRSDDTAVYYCARWRTSYFSDYGYFDYWGQGTTVTVSS
VL: DIQMTQSPSSLSASVGDRVTITCRASQDIENYLNWYQQKPGKAPKLLIYYTSRLQSGVPSRFSGSGSGTDFTLTISSLQPEDFATYFCQQGNTQPPTFGQGTKLEIKRTVAAPSVFIFPPDVVMTQSPLSLPVTLGQPASISCRSSQSLVHSHGNTYLHWYQQRPGQSPRLLIYTVSNRFSGVPDRFSGSGSGTDFTLKISRVEAEDVGVYYCSQSTHVPYTFGGGTKVEIKR
notes: as for B5
- Kd (Recombinant Human IL-13): < 0.017 nM
- koff (Recombinant Human IL-13): < 1e-06 s⁻¹
- kon (Recombinant Human IL-13): 58000 M⁻¹ s⁻¹

Other lines, results leading:

- N-Terminal VD huTNFα Neutralization Assay IC50 [1]: 0.002 nM
B6: DVD3283 (bispecific antibody, IgG1)
VH: EVQLVQSGAEVKKPGASVKVSCKASGYTFANYGIIWVRQAPGQGLEWMGWINTYTGKPTYAQKFQGRVTMTTDTSTSTAYMELSSLRSEDTAVYYCARKLFTTMDVTDNAMDYWGQGTTVTVSSGGGGSGGGGSEVQLQQSGPELVTPGASVKISCKASGYTFTKYWLGWVKQSHGKSLEWIGDIYPGYDYTHYNEKFKDTATLTVDKSSSIAYMEIRGLTSEDSAVYYCARSDGSSTYWGQGTLVTVSA
VL: DIQMTQSPSSLSASVGDRVTITCRASQDISQYLNWYQQKPGKAPKLLIYYTSRLQSGVPSRFSGSGSGTDFTLTISSLQPEDFATYFCQQGNTWPPTFGQGTKLEIKRGGSGGGGSGDVQMIQSPSSLSASLGDIVTMTCTSSQNIVHSNGNTYLEWFQQKPGKAPKLLIYKVSNRFSGVPSRFSGSRYGTDFTLTISSLEDEDLATYFCFQVSHVPYTFGGGTKLEIKR

- N-Terminal VD huTNFα Neutralization Assay IC50 [1]: 0.012 nM
B7: DVD3284 (bispecific antibody, IgG1)
VH: EVQLVQSGAEVKKPGASVKVSCKASGYTFANYGIIWVRQAPGQGLEWMGWINTYTGKPTYAQKFQGRVTMTTDTSTSTAYMELSSLRSEDTAVYYCARKLFTTMDVTDNAMDYWGQGTTVTVSSASTKGPEVQLQQSGPELVTPGASVKISCKASGYTFTKYWLGWVKQSHGKSLEWIGDIYPGYDYTHYNEKFKDTATLTVDKSSSIAYMEIRGLTSEDSAVYYCARSDGSSTYWGQGTLVTVSA
VL: DIQMTQSPSSLSASVGDRVTITCRASQDISQYLNWYQQKPGKAPKLLIYYTSRLQSGVPSRFSGSGSGTDFTLTISSLQPEDFATYFCQQGNTWPPTFGQGTKLEIKRTVAAPDVQMIQSPSSLSASLGDIVTMTCTSSQNIVHSNGNTYLEWFQQKPGKAPKLLIYKVSNRFSGVPSRFSGSRYGTDFTLTISSLEDEDLATYFCFQVSHVPYTFGGGTKLEIKR

- N-Terminal VD huTNFα Neutralization Assay IC50 [1]: 0.018 nM
B8: DVD3287 (bispecific antibody)
VH: EVQLVQSGAEVKKPGASVKVSCKASGYTFANYGIIWVRQAPGQGLEWMGWINTYTGKPTYAQKFQGRVTMTTDTSTSTAYMELSSLRSEDTAVYYCARKLFTTMDVTDNAMDYWGQGTTVTVSSASTKGPSVFPLAPEVQLQQSGPELVTPGASVKISCKASGYTFTKYWLGWVKQSHGKSLEWIGDIYPGYDYTHYNEKFKDTATLTVDKSSSIAYMEIRGLTSEDSAVYYCARSDGSSTYWGQGTLVTVSA
VL: DIQMTQSPSSLSASVGDRVTITCRASQDISQYLNWYQQKPGKAPKLLIYYTSRLQSGVPSRFSGSGSGTDFTLTISSLQPEDFATYFCQQGNTWPPTFGQGTKLEIKRTVAAPDVQMIQSPSSLSASLGDIVTMTCTSSQNIVHSNGNTYLEWFQQKPGKAPKLLIYKVSNRFSGVPSRFSGSRYGTDFTLTISSLEDEDLATYFCFQVSHVPYTFGGGTKLEIKR

- N-Terminal VD huTNFα Neutralization Assay IC50 [1]: 0.002 nM
B9: DVD3286 (bispecific antibody, IgG1)
VH: EVQLVQSGAEVKKPGASVKVSCKASGYTFANYGIIWVRQAPGQGLEWMGWINTYTGKPTYAQKFQGRVTMTTDTSTSTAYMELSSLRSEDTAVYYCARKLFTTMDVTDNAMDYWGQGTTVTVSSASTKGPEVQLQQSGPELVTPGASVKISCKASGYTFTKYWLGWVKQSHGKSLEWIGDIYPGYDYTHYNEKFKDTATLTVDKSSSIAYMEIRGLTSEDSAVYYCARSDGSSTYWGQGTLVTVSA
VL: DIQMTQSPSSLSASVGDRVTITCRASQDISQYLNWYQQKPGKAPKLLIYYTSRLQSGVPSRFSGSGSGTDFTLTISSLQPEDFATYFCQQGNTWPPTFGQGTKLEIKRTVAAPSVFIFPPDVQMIQSPSSLSASLGDIVTMTCTSSQNIVHSNGNTYLEWFQQKPGKAPKLLIYKVSNRFSGVPSRFSGSRYGTDFTLTISSLEDEDLATYFCFQVSHVPYTFGGGTKLEIKR
